This is an account of results in patent US20230174663A1 (MEDABOME, published 2023).

For assay [1], the target named is T1, recombinantly expressed human TfR1 extracellular domain with a His tag (rTfR1-ECD, ACRO Biosystems) (human, UniProt P02786 89-760).
T1 construct: extracellular domain; Bought reagent; also called 6His-tagged rTfR1-ECD; extracellular domain of TfR1
Nature of the assay: BLI (Octet QK), 50 nM mAb loaded on anti-mouse Fc sensors; same value printed in the rows 20, 8, 3.2 and 1.28 nM rTfR1-ECD; koff Error blank. In general terms: In BLI a coated tip is dipped into the sample, and binding shifts an interference pattern.

For assay [2], the target named is T1, recombinantly expressed human TfR1 …. Nature of the assay: BLI (Octet QK), 10 nM mAb loaded on anti-mouse Fc sensors; same value printed in the rows 20, 8, 3.2 and 1.28 nM rTfR1-ECD; kon Error 2.12E+04, Full R^2 0.989.
The target is the same in assay [3]. Nature of the assay: BLI (Octet QK), 10 nM mAb loaded on anti-mouse Fc sensors; same value printed in the rows 20, 8, 3.2 and 1.28 nM rTfR1-ECD; koff Error blank.
Assay [4] has the same target. Nature of the assay: BLI (Octet QK), 50 nM mAb loaded on anti-mouse Fc sensors; same value printed in the rows 20, 8, 3.2 and 1.28 nM rTfR1-ECD; kon Error 9.80E+03, Full R^2 0.9909.
Assay [5] shares this target. Nature of the assay: direct ELISA, plate coated with 0.1 µg/mL rTfR1-ECD, detection anti-mouse IgG Fc-HRP. Here is the method: The plate was coated with 0.1 μg/mL of purified rTfR1-ECD containing a C-terminal 6×His tag. A mouse anti-6×His mAb and an isotype control Ab were used as positive and negative controls, respectively. All the primary antibodies were in 3-fold serial dilutions with a starting concentration of 3 μg/mL. Peroxidase AffiniPure Goat Anti-Mouse IgG Fey at 1:6,000 dilution was used for detection.
3,3′,5,5′-Tetramethylbenzidine (TMB) substrate was added and absorbance at 450 nm of wavelength was measured using a SpectraMax microplate reader (Molecular Device, San Jose, Calif.).
A general note: An ELISA detects its analyte on a solid surface through an enzyme-linked reagent.

Assay [6] has the same target. Nature of the assay: BLI (Octet QK), mAb captured on anti-mouse Fc (AMC) biosensors, rTfR1-ECD in solution.
The target in assay [7] is T2, human TfR1-GFP fusion protein (rTfR1-GFP) expressed on the membrane of CHO-DG44 cells (human, UniProt P02786 1-760).
T2 construct: whole, on cells; also called CHO/rTfR1-GFP cells; CHO/rTfR-GFP cells; not shown: GFP (also called EGFP) fused in frame to the C-terminus
Nature of the assay: FACS titration on CHO/rTfR1-GFP cells. The source says: The cDNA was in-frame fused with a GFP-coding DNA fragment to its C-terminus and then cloned into an in-house expression vector containing the human CMV promoter and a puromycin resistant gene (PuroR) for selection. […] CHO cell colonies stably expressing high-level EGFP were isolated and subcloned.

Assay [8] has as its target T1, recombinantly expressed human TfR1 …. Nature of the assay: BLI (Octet QK), 50 nM cAb loaded on anti-human Fc sensors; same value printed in the rows 50, 20, 8, 3.2 and 1.28 nM rTfR1-ECD; kon Error 2.34E+03, Full R^2 0.9963. Here is the method: (§1) Concentrations of rTfR1-ECD ranged from 50 nM to 1.28 nM by 2.5-fold serial dilutions.
The target is the same in assay [9]. Nature of the assay: BLI (Octet QK), cAb captured on anti-human Fc (AHC) biosensors, rTfR1-ECD 50 nM to 1.28 nM in solution. As for the experimental part: as §1
Assay [10] has the same target. Nature of the assay: BLI (Octet QK), 50 nM cAb loaded on anti-human Fc sensors; same value printed in the rows 50, 20, 8, 3.2 and 1.28 nM rTfR1-ECD; koff Error blank. As for the experimental part:
as §1

The target is the same in assay [11]. Nature of the assay: BLI (Octet QK), 10 nM cAb loaded on anti-human Fc sensors; same value printed in the rows 50, 20, 8, 3.2 and 1.28 nM rTfR1-ECD; kon Error 5.18E+03, Full R^2 0.9885. Here is the method: as §1
The target is the same in assay [12]. Nature of the assay: BLI (Octet QK), 10 nM cAb loaded on anti-human Fc sensors; same value printed in the rows 50, 20, 8, 3.2 and 1.28 nM rTfR1-ECD; koff Error blank. As for the experimental part: as §1

Where “and” joins values, the source holds several entries; their conditions need not be identical. Equal entries are not always repeated.

T1 sequence (P02786 other isoform, or with tags, fused parts or gaps): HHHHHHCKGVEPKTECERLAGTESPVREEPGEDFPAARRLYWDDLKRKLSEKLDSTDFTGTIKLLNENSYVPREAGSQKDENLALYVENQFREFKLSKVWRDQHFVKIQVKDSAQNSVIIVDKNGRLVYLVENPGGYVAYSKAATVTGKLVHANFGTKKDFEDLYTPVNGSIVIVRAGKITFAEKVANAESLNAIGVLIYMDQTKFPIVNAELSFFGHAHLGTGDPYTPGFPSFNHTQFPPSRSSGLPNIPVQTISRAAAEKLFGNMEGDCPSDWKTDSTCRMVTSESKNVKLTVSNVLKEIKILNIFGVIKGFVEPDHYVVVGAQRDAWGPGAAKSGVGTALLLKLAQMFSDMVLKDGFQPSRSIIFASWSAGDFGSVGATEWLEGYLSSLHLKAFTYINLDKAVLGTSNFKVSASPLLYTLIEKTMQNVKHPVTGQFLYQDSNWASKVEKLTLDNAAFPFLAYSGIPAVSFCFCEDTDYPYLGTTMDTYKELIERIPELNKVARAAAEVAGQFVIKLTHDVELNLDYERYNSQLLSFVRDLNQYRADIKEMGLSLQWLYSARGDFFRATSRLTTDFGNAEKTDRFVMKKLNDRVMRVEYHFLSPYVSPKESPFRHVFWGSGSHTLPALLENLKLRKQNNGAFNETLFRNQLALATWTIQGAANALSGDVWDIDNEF
T2 sequence (P02786 whole entry, the tested form may be a part): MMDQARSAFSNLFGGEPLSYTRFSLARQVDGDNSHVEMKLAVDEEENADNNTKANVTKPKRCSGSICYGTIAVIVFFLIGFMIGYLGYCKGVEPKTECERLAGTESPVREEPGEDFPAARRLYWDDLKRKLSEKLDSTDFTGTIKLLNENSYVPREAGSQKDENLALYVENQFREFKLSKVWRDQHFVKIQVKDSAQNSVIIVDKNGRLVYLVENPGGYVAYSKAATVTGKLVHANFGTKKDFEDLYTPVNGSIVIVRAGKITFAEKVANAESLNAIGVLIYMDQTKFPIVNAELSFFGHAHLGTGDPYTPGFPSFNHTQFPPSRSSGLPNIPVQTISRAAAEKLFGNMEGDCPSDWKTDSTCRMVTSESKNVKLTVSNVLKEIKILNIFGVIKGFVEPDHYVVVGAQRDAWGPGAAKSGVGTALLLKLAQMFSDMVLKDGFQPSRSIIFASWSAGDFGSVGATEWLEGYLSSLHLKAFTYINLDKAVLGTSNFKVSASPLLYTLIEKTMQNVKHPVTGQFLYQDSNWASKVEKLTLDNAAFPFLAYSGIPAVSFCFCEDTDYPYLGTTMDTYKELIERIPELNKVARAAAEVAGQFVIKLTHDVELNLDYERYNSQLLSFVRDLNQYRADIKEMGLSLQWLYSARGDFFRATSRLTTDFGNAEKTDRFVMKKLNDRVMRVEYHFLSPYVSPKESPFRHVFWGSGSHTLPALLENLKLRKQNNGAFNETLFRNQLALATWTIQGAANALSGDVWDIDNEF

B1: MAb11-22.1 mAb (antibody, IgG1, V domains shown)
VH: EVQLQQSGPELVKPGASVRISCKTSGYTFTNYYIHWMKQRPGQGLEWIGWIYPGDGNSHYNEKFKGKTTLTADKSSSTGYILLSSLTSEDSAVYFCTRDYDNYGGFAYWGQGTLVTVSA
VL: IVMTQSPSSLTVTAGEKVTMSCKSSQSLLNSGNQKNYLTWYQQKPGQPPKLLIYWASTWESRVPDHFTGSGSGTDFTLTISSVQAEDLAVYYCQNDYSYPLTFGAGTKLELKR
notes: Mouse hybridoma antibody, IgG1/kappa; both are kept under this molecule
What is called koff is a measure of how fast the partners let go of each other. Broadly, the kon is a measure of how fast the partners come together. What is called EC50 (read off the curve) is the concentration at which the effect is half-maximal. By Kd is commonly meant the equilibrium constant for the complex coming apart. A word on the IC50: it is the point on the concentration scale where inhibition reaches its midpoint. Low values mean greater potency in that assay, high ones weaker potency in that assay. In the case of B1, the koff in assay [1] and in [3] was less than 1e-07 s⁻¹ in each case. For the same molecule, the kon in assay [2] was 1.16e+06 M⁻¹ s⁻¹; in assay [4], 604000 M⁻¹ s⁻¹. For the same molecule, the “EC50 (read off the curve)” value in assay [5] is roughly 0.04 µg/mL. The Kd in assay [6] is less than 1 pM. The IC50 in assay [7] is 0.03 µg/mL and 0.04 µg/mL.

B2: MAb11-22.1 chimeric Ab (cAb) (antibody, V domains shown)
VH: B1 VH
VL: B1 VL
notes: not shown: constant region of human IgG1 heavy chain (CH1-CH3); constant region of human kappa light chain (CL)
Consider B2, for which the kon in [8] was 196000 M⁻¹ s⁻¹; in [11], 244000 M⁻¹ s⁻¹. Besides, in assay [9], the Kd was less than 1 pM. For the same molecule, the koff in assay [10] and in assay [12] was less than 1e-07 s⁻¹ each time.

B3: anti-human TfR1 control mAb (R&D Systems) (antibody, V domains shown)
VH: QVQLQQSGPELVKPGASVKMSCKASGYTFTNYYIHWVKQRPGQGLEWIGWIYPGDGSTKYNEKFKGKTTLTADKSSSTAYMLLSSLTSEDSAIYFCARDGSSAPKFTYWGQGTLVTVSA
VL: DIVMTQSPSSLTVTAGEKVTMRCKSSQSLLNSGNQKNYLTWYQQKPGQPPKLLIYWASTRESGVPDRFTGSGSGTDFTLTISSVQAEDLAVYYCQNDYSYPLTFGAGTKLELK
In [7], B3 had an IC50 of roughly 0.1 µg/mL.
